Columns and labels:
[1] = molecular target: PfuExo I (recombinant protein encoded by PF2046) (Pyrococcus furiosus) (UniProt Q8TZE9); assay: SEC; analytical gel filtration, SMART system, Superdex 200 3.2/30; 20 µM PfuExo I; 50 mM Tris-HCl pH 8.0, 0.5 mM DTT, 0.1 mM EDTA, 10% glycerol, 0.15 M NaCl; mass estimated against marker proteins
PfuExo I = molecular target: T1, PfuExo I (Pyrococcus furiosus, UniProt Q8TZE9 1-229); assay: EMSA; no Mg2+, 0.1 mM EDTA; 1-1000 nM protein; 0.1% glutaraldehyde fixation; one shifted band; 20 mM triethanolamine (pH not stated), 50 mM NaCl, 0.1 mg/ml BSA, 0.1 mM EDTA, 2.5 nM DNA, 20 min at 37 C, then 0.1% glutaraldehyde; 4.5% native PAGE; details: protein: recombinant, chain copies: 3, label: 32P (5')
T1 sequence: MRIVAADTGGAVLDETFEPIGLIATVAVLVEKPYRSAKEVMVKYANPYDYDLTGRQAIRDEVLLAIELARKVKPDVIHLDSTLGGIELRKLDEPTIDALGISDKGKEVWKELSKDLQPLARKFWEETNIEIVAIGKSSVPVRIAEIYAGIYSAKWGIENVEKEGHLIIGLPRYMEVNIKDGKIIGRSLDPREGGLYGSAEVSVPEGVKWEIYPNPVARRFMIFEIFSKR

## PfuExo I (recombinant protein encoded by PF2046) (from UniProt Q8TZE9 1-229) (enzyme)
[1]
  stoichiometry N: 3

B1: 5'-overhang DNA d49F/d27 (dsDNA)
DNA 1: AGCTACCATGCCTGCACGAATTAAGCAATTCGTAATCATGGTCATAGCT
DNA 2: AGCTATGACCATGATTACGAATTGCTT
PfuExo I; 5' overhang 22 nt
  binding result: binds

B2: 3'-overhang DNA d49F/d22 (dsDNA)
DNA 1: AGCTACCATGCCTGCACGAATTAAGCAATTCGTAATCATGGTCATAGCT
DNA 2: AATTCGTGCAGGCATGGTAGCT
PfuExo I; 3' overhang 27 nt
  binding result: binds

— paper PMC3591345, “A Novel Single-Strand Specific 3′–5′ Exonuclease Found in the Hyperthermophilic Archaeon, Pyrococcus furiosus”
